# Measured values: article PMC3755343, “A family of fluoride-specific ion channels with dual-topology architecture” (eLife, 2013)
# B1: Fluc-Bpe R29C labeled with Cy5-maleimide (natural protein)
# chain: MLTYAPLNFIAIGIGATLGAWLRWVLGLCLNGAGWPWGTLTANLVGGYLIGVMVALIASHPEWPAWIRLAAVTGFLGGLTTFSTFSAETVDMLERGVYATAAAYAGASLAGSLAMTGLGLATVRLLLR
# modifications: Cy5-maleimide on the unique cysteine R29C (labeling efficiency 72%)
# notes: Fluc homologue Bpe from Bordatella pertussis (so in the source), NCBI NP_879990.1, naturally cysteine-free, with a single cysteine substitution; source: E. coli BL21-DE3, purified, labeled with Cy5-maleimide, reconstituted into liposomes at 0.15 µg/mg lipid
# B2: Fluc-Bpe R29K (natural protein)
# chain: MLTYAPLNFIAIGIGATLGAWLRWVLGLKLNGAGWPWGTLTANLVGGYLIGVMVALIASHPEWPAWIRLAAVTGFLGGLTTFSTFSAETVDMLERGVYATAAAYAGASLAGSLAMTGLGLATVRLLLR
# notes: Fluc homologue Bpe from Bordatella pertussis (so in the source), NCBI NP_879990.1, lysine-less, with a single lysine in loop 1
# B3: Fluc-Bpe R95K (natural protein)
# chain: MLTYAPLNFIAIGIGATLGAWLRWVLGLRLNGAGWPWGTLTANLVGGYLIGVMVALIASHPEWPAWIRLAAVTGFLGGLTTFSTFSAETVDMLEKGVYATAAAYAGASLAGSLAMTGLGLATVRLLLR
# notes: Fluc homologue Bpe from Bordatella pertussis (so in the source), NCBI NP_879990.1, lysine-less, with a single lysine in loop 3
# B4: Fluc-Bpe T3C labeled with Cy5-maleimide (natural protein)
# chain: MLCYAPLNFIAIGIGATLGAWLRWVLGLRLNGAGWPWGTLTANLVGGYLIGVMVALIASHPEWPAWIRLAAVTGFLGGLTTFSTFSAETVDMLERGVYATAAAYAGASLAGSLAMTGLGLATVRLLLR
# modifications: Cy5-maleimide on the unique cysteine T3C (labeling efficiency 62%)
# notes: as for B1
# Tests used:
# [1] = molecular target: Fluc-Ec2 (E. coli (virulence plasmid)) (UniProt Q6J5N4); experiment: SEC-MALS; SEC with static light scattering, refractive index and UV detectors; Superdex-75 in 400 mM NaF, 10 mM MES pH 6.5, 5 mM DM (detergent micelles)
# [2] = molecular target: the molecule itself; experiment: single-molecule TIRF photobleaching; Cy5-labeled protein reconstituted at very low density (0.15 µg/mg lipid) in liposomes adhered to glass; counting of bleaching steps
# [3] = molecular target: the molecule itself; experiment: cross-linking; ~0.1 mg/ml purified protein in 20 mM MOPS pH 7.5, 100 mM NaCl, 10 mM NaF, 5 mM DM with 0.125% glutaraldehyde for 5-120 min; 15% SDS-PAGE
molecule,measurement,setting,value
Fluc-Ec2 (from UniProt Q6J5N4 1-126) (natural protein),stoichiometry N,[1],2
B1,stoichiometry N,[2],2
B2,binding result,[3],binds
B3,binding result,[3],binds
B4,binding result,[2],binds
